Biological target: purified recombinant full-length WDR5 (UniProt P61964)

For “GST-tagged SETd1A Win-SET domain, Setd1A(1474-1708), Win motif arginine to alanine mutant”, the “core complex methyltransferase activity, H3K4me1 and H3K4me2 peptides, mutant against wild type” value was “at least a 2-fold reduction in activity compared to their wild-type counterparts”.
With “GST-tagged MLL2 Win-SET domain, MLL2(5319-5537), Win motif arginine to alanine mutant” the “core complex H3K4 dimethylation activity, mutant against wild type” value was “a 2-fold increase in this activity with the MLL2 Win motif variant”.
With “GST-tagged MLL4 Win-SET domain, MLL4(2490-2715), Win motif arginine to alanine mutant” the “core complex methyltransferase activity, H3K4me1 peptide, mutant against wild type” value was “showed similar amounts of activity compared to that of their wild-type counterparts”.
